From US20060246095A1, “Multiepitope polypeptides for cancer immunotherapy” (HADASIT MEDICAL RESEARCH SERVICES & DEVELOPMENT LTD., priority 2003, published 2006)

Key:
[1] = LTB-MEP fusion protein functional assay (GM1 ganglioside ELISA, anti-MEP detection); type: binding; conditions: GM1 ganglioside coated plates, chicken anti-MEP antibodies
Procedure: LTB-MEP fusion protein expressed by the recombinant pQE30-LTB-MEP construct was tested for its ability to bind GM1 ganglioside and anti-MEP antibodies. LTB-MEP fusion protein was incubated in ELISA plates coated with GM1 ganglioside (which binds to native LTB) with chicken anti-MEP antibodies.
Only LTB-MEP molecules with functional LTB and MEP units can be detected by this assay. Boiled LTB-MEP protein losses its capability to bind to GM1 ganglioside and therefore could not be detected.
A BamHI-HindIII fragment encoding for MEP (SEQ ID NO: 1) was attached to a KpnI-HindIII fragment encoding for LTB (SEQ ID NO: 52) through a polynucleotide linker. The ligated product was cloned into pQE30 vector and transformed into E. Coli (JM109 strain). LTB-MEP fusion protein expressed in bacteria, was purified and further characterized by ELISA assay. Ganglioside GM1 coated plates were incubated at 37° C. in the presence of native or boiled LTB-MEP fusion protein, purified LTB and pQE30 DNA expression vector (without insert) molecules. […] LTB molecule is sensitive to temperature and heat treatment destroys its capability to bind to GM1 ganglioside. Since binding detection was performed using chicken anti-MEP antibodies only active LTB-MEP fusion protein could be detected.

DC = DC maturation in vitro (preliminary data); type: cell-based
From the text: A non-toxic form of LT (NLT) was produced by the present inventors. […] Thus, NLT and LTB could be developed as a delivery system for the presentation of tumor antigens to the immune system.

B1: Purified LTB (protein)
chain: APQTITELCSEYRNTQIYTINDKILSYTESMAGKREMVIITFKSGETFQVEVPGSQHIDSQKKAIERMKDTLRITYLTETKIDKLCVWNNKTPNSIAAISMKN
OD 450 nm ([1]; treatment 37° C.): 1.05
OD 450 nm ([1]; treatment Boiled): 0.98
DC maturation (DC): induce DC maturation in vitro
